Experimental data published in the supplement of paper PMC9233669.
Variants at the floor of the assay were thinned out.

Experiments:
[1] = system: biotinyl-Trp-oxazolone; assay: self-aminoacylation, catalytic enhancement (BWO) (fold over background); higher = more active; k-Seq, kA / k0A0; sequences stand for … in GGGAAUGGAUCCACAUCUACGAAUUC…UUCACUGCAGACUUGACGAAGCUG
Procedure, shortened: (§1)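 Mutagenized RNA pools with a 21-nt variable region (0.43 μM) were reacted with each biotinyl-aminoacyl-oxazolone at 2–1250 μM for 90 minutes at room temperature, in 50 μL HEPES/NaCl/KCl/MgCl2/CaCl2 buffer containing 5% acetonitrile at pH 6.9–7.0. RNA captured on streptavidin was quantified by triplicate qPCR and by Illumina sequencing. The fraction reacted for each sequence was fit to a pseudo-first-order model with bootstrapping, and catalytic enhancement is the median kA divided by the uncatalyzed rate, taken as the low-activity peak of a bimodal Gaussian fit.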

[2] = system: biotinyl-Met-oxazolone; assay: self-aminoacylation, catalytic enhancement (BMO) (fold over background); higher = more active; k-Seq, kA / k0A0; sequences stand for … in GGGAAUGGAUCCACAUCUACGAAUUC…UUCACUGCAGACUUGACGAAGCUG
Procedure, shortened: as §1

[3] = system: biotinyl-Leu-oxazolone; assay: self-aminoacylation, catalytic enhancement (BLO) (fold over background); higher = more active; k-Seq, kA / k0A0; sequences stand for … in GGGAAUGGAUCCACAUCUACGAAUUC…UUCACUGCAGACUUGACGAAGCUG
Procedure, shortened: as §1

[4] = system: biotinyl-Phe-oxazolone; assay: self-aminoacylation, catalytic enhancement (BFO) (fold over background); higher = more active; k-Seq, kA / k0A0; sequences stand for … in GGGAAUGGAUCCACAUCUACGAAUUC…UUCACUGCAGACUUGACGAAGCUG
Procedure, shortened: as §1

[5] = system: biotinyl-Ile-oxazolone; assay: self-aminoacylation, catalytic enhancement (BIO) (fold over background); higher = more active; k-Seq, kA / k0A0; sequences stand for … in GGGAAUGGAUCCACAUCUACGAAUUC…UUCACUGCAGACUUGACGAAGCUG
Procedure, shortened: as §1

[6] = system: biotinyl-Val-oxazolone; assay: self-aminoacylation, catalytic enhancement (BVO) (fold over background); higher = more active; k-Seq, kA / k0A0; sequences stand for … in GGGAAUGGAUCCACAUCUACGAAUUC…UUCACUGCAGACUUGACGAAGCUG
Procedure, shortened: as §1

Sequence	self-aminoacylation [1]	self-aminoacylation [2]	self-aminoacylation [3]	self-aminoacylation [4]	self-aminoacylation [5]	self-aminoacylation [6]
AAGUUUGCUGAUUGUCGCAAG [Fam3.1 aminoacylation ribozyme variant]	1.37	1.09	1.11	1.02	0.948	1.02
AAGUUUGCUUAAAGUCGCAAG [Fam3.1 aminoacylation ribozyme variant]	1.1	0.754	0.896	1.07	0.972	0.897
AAGUUUGCUUAGAGUCGCAAG [Fam3.1 aminoacylation ribozyme variant]	1	0.757	0.592	0.969	0.725	0.785
AAGUUUGCUUAUAGUCGCCAG [Fam3.1 aminoacylation ribozyme variant]	1.08	0.883	0.933	0.665	1.08	0.955
AAGUUUGCUUAUAGUCGCUAG [Fam3.1 aminoacylation ribozyme variant]	0.61	0.705	0.628	1	0.884	0.646
AAGUUUGCUUAUAGUCUCAAG [Fam3.1 aminoacylation ribozyme variant]	0.69	1.08	0.902	1.41	1.05	0.888
AAGUUUGGCAAUAGUCGCAAG [Fam3.1 aminoacylation ribozyme variant]	1.49	1.49	1.4	1.92	1.79	1.42
AAGUUUGGUAAUAGUCGCAAG [Fam3.1 aminoacylation ribozyme variant]	1.38	1.22	1.25	2.13	1.32	1.19
AAGUUUGGUAAUAGUCGCACG [Fam3.1 aminoacylation ribozyme variant]	1.09	1.07	1.45	1.98	1.18	1.11
AAGUUUGGUAAUAGUCGUAAG [Fam3.1 aminoacylation ribozyme variant]	1.11	0.961	0.801	1.44	1.04	0.916
AAGUUUGUUAAUAGGCGCAAG [Fam3.1 aminoacylation ribozyme variant]	0.763	0.799	0.556	1.05	0.767	0.652
AAGUUUGUUAAUAGUCGUAAG [Fam3.1 aminoacylation ribozyme variant]	0.911	0.893	0.902	1.38	0.929	0.808
AAGUUUGUUGAUAGUCGCAAG [Fam3.1 aminoacylation ribozyme variant]	1.19	1.09	1.09	1.36	1.14	1.09
AAGUUUGUUUAUAGUCGCAAG [Fam3.1 aminoacylation ribozyme variant]	1.52	1.34	1.26	1.47	1.3	1.24
AAGUUUUCUAAGAGUCGCAAG [Fam3.1 aminoacylation ribozyme variant]	1.51	1.32	1.62	3.16	1.65	1.62
AAGUUUUCUAAUAGUCGCAAA [Fam3.1 aminoacylation ribozyme variant]	2.46	1.54	1.41	3.41	1.93	1.54
AAUACCCGGGUCAUCGAGUGA [Fam2.1 aminoacylation ribozyme variant]	7.23	5.22	6.7	34.7	3.72	3.64
AAUACCCUGGGCAUCGAGUGA [Fam2.1 aminoacylation ribozyme variant]	3.44	3.75	3.79	8.76	1.8	2.29
AAUACCCUGGUCAUAGAGUGA [Fam2.1 aminoacylation ribozyme variant]	5.58	4.64	4.68	10.7	2.68	2.3
AAUACCCUGGUCAUCGAAUGA [Fam2.1 aminoacylation ribozyme variant]	1.17	0.76	0.724	0.529	0.855	0.781
AAUCACCUAGCUCAUCGGGUG [Fam2.2 aminoacylation ribozyme variant]	3.68	2.82	2.31	17.7	2.33	3.17
AAUCACCUAGGACAUCGGGUG [Fam2.2 aminoacylation ribozyme variant]	5.94	4.09	3.27	19.1	3.91	3.32
AAUCACCUAGGUCAUCGGGGG [Fam2.2 aminoacylation ribozyme variant]	3.96	3.21	3.66	10.6	2.91	2.77
AAUCACCUAGGUCAUCGGGUA [Fam2.2 aminoacylation ribozyme variant]	10.5	12	14.7	52.7	7.76	7.24
AAUCACCUAGGUGAUCGGGUG [Fam2.2 aminoacylation ribozyme variant]	5.05	5.43	4.84	27.7	4.6	4.03
AAUCACCUCGGUCAUCGGGUG [Fam2.2 aminoacylation ribozyme variant]	7.61	4.76	4.99	31.2	4.07	5.23

Sequence	self-aminoacylation [1]	self-aminoacylation [2]	self-aminoacylation [3]	self-aminoacylation [4]	self-aminoacylation [5]	self-aminoacylation [6]
AAUCAUCUAGGUCAUCGGGUG [Fam2.2 aminoacylation ribozyme variant]	7.01	5.64	5.48	41.3	4.54	4.6
AAUCUCCUAGGUCAUCGGGUG [Fam2.2 aminoacylation ribozyme variant]	5.91	6.93	6.83	35.1	4.3	4.51
AAUUGUGCUAAUAGUCGCAAG [Fam3.1 aminoacylation ribozyme variant]	2.44	2.02	2.18	3.05	1.93	1.75
AAUUUUGCUAAUCGUCGCAAG [Fam3.1 aminoacylation ribozyme variant]	1.62	1.53	1.37	2.37	1.91	1.56
AAUUUUGCUAGUAGUCGCAAG [Fam3.1 aminoacylation ribozyme variant]	1.71	1.77	1.56	2.34	2.02	1.36
AAUUUUGCUAUUAGUCGCAAG [Fam3.1 aminoacylation ribozyme variant]	1.85	1.71	1.89	2.76	1.98	1.63
AAUUUUGCUUAUAGUCGCAAG [Fam3.1 aminoacylation ribozyme variant]	2.28	2.17	2.29	3.02	2.39	2.14
AAUUUUUCUAAUAGUCGCAAG [Fam3.1 aminoacylation ribozyme variant]	1.54	1.7	1.75	3.68	1.88	1.75
ACACACCUCAAGCAAUCGGUC [Fam1B.1 aminoacylation ribozyme variant]	0.883	0.58	0.763	1.19	0.848	0.927
ACACACUUCAACCAAUCGGUC [Fam1B.1 aminoacylation ribozyme variant]	26.6	1.65	2.16	32.5	1.69	1.56
ACACACUUCAAGCAAACGGUC [Fam1B.1 aminoacylation ribozyme variant]	1.13	0.749	0.941	1.56	1.02	1.04
ACACACUUCAAGCAAGCGGUC [Fam1B.1 aminoacylation ribozyme variant]	1.74	1.33	1.52	2.18	1.6	1.73
ACACACUUCAAGCAAUAGGUC [Fam1B.1 aminoacylation ribozyme variant]	0.901	0.828	0.737	1.57	0.894	0.976
ACACACUUCAAGCAAUCGGCC [Fam1B.1 aminoacylation ribozyme variant]	6.35	2.21	2.54	4	2.7	2.57
ACACACUUCAAGCAAUCGGUG [Fam1B.1 aminoacylation ribozyme variant]	9.81	7.83	10.5	56.7	5.89	5.84
ACACACUUCAAGCAAUGGGUC [Fam1B.1 aminoacylation ribozyme variant]	1.03	1.03	0.794	1.04	0.996	0.947
ACACACUUCAAUCAAUCGGUC [Fam1B.1 aminoacylation ribozyme variant]	19.8	1.39	1.74	29.4	1.59	1.53
ACAGACUUCAAGCAAUCGGUC [Fam1B.1 aminoacylation ribozyme variant]	38.2	2.39	3.24	68.1	2.39	2.27
ACCCACCUAGGUCAUCGGGUG [Fam2.2 aminoacylation ribozyme variant]	6.03	5.93	5.88	54	5.07	5.64
ACGAUUGCUAAUAGUCGCAAG [Fam3.1 aminoacylation ribozyme variant]	0.96	1.23	1.57	1.54	1.35	1.43
ACGGUUGCUAAUAGUCGCAAG [Fam3.1 aminoacylation ribozyme variant]	1.38	1.19	1.31	2.51	1.3	1.32
ACGUGUGCUAAUAGUCGCAAG [Fam3.1 aminoacylation ribozyme variant]	1.63	1.62	1.68	4.86	1.6	1.28
ACGUUUGCAAAUAGUCGCAAG [Fam3.1 aminoacylation ribozyme variant]	1.2	1.38	1.29	1.27	1.57	1.2
ACGUUUGCUAAUUGUCGCAAG [Fam3.1 aminoacylation ribozyme variant]	2.66	1.81	2.06	1.96	1.6	1.77
ACUACCCUAGUCAUCGAGUGA [Fam2.1 aminoacylation ribozyme variant]	5.01	4.62	5.39	8.71	2.95	2.64
